From patent US6551840B2, “Method of screening TGF-β-inhibiting substances” (Chugai Seiyaku Kabushiki Kaisha, priority 1997, dated 2003)

Assays:
Mv1Lu cell [1] = assay: PAI-1 ELISA in culture supernatant of Mv1Lu cells with or without TGF-β1; type: cell-based, mink; details: Mv1Lu cells with forced expression; 10 ng/ml TGF-β1, 24 hours; control cells about 16-fold
From the text: Accordingly, TAK1DN was subjected to forced expression in the Mv1Lu cell to investigate the effects of TGF-β stimulation on PAI-1 expression. The TAK1DN expression vector used was the above-mentioned TAK1DN, and the TAK1 polypeptide mutant TAK1-K63W expression vector was constructed by inserting a gene (Yamaguchi K. et al., (1995) Science 270, 2008-2011) encoding the TAK1 polypeptide mutant TAK1-K63W in which the lysine residue at position 63 has been replaced with the tryptophan residue at the EcoRI and NotI restriction enzyme site of pCOS1 to give pTAK1K63W.
The Mv1Lu cells into which pTAK1Dn had been introduced (Mv/DN2), the cells into which pTAK1K63W had been introduced (Mv/KN7), and the control cells into which pCOS1 containing no inserted genes (Mv/NEO) had been introduced were each incubated in a low-serum medium (MEM medium containing 0.2% FBS; manufactured by GIBCO-BRL) with or without 10 ng/ml of TGF-β1 for 24 hours. The amount of PAI-1 in the culture supernatant was determined using the PAI-1 Quantative ELISA (manufactured by CALBIOCHEM).

Mv1Lu cell [2] = details: Yamaguchi K. et al., (1995) Science 270, 2008-2011; cited from earlier work

B1: TAK1-K63W: catalytically inactive TAK1 polypeptide mutant in which the lysine residue at position 63 has been replaced with the tryptophan residue (protein, UniProt O43318 1-606, looked up, variant K63W)
Mitogen-activated protein …: MSTASAASSSSSSSAGEMIEAPSQVLNFEEIDYKEIEVEEVVGRGAFGVVCKAKWRAKDVAIWQIESESERKAFIVELRQLSRVNHPNIVKLYGACLNPVCLVMEYAEGGSLYNVLHGAEPLPYYTAAHAMSWCLQCSQGVAYLHSMQPKALIHRDLKPPNLLLVAGGTVLKICDFGTACDIQTHMTNNKGSAAWMAPEVFEGSNYSEKCDVFSWGIILWEVITRRKPFDEIGGPAFRIMWAVHNGTRPPLIKNLPKPIESLMTRCWSKDPSQRPSMEEIVKIMTHLMRYFPGADEPLQYPCQYSDEGQSNSATSTGSFMDIASTNTSNKSDTNMEQVPATNDTIKRLESKLLKNQAKQQSESGRLSLGASRGSSVESLPPTSEGKRMSADMSEIEARIAATTAYSKPKRGHRKTASFGNILDVPEIVISGNGQPRRRSIQDLTVTGTEPGQVSSRSSSPSVRMITTSGPTSEKPTRSHPWTPDDSTDTNGSDNSIPMAYLTLDHQLQPLAPCPNSKESMAVFEQHCKMAQEYMKVQTEIALLLQRKQELVAELDQDEKDQQNTSRLVQEHKKLLDENKSLSTYYQQCKKQLEVIRSQQQKRQGTS
For B1, the “increase in PAI-1 in the culture supernatant by TGF-β1 addition” value (Mv1Lu cell [1]) is listed as “about 6.5 fold” and the “effect of forced expression on PAI-1 expression stimulated by TGF-β” value (Mv1Lu cell [2]) is listed as “PAI-1 expression is inhibited”.
